How the values were obtained:
IL-4R-ECD-FLAG (human) [1] = target: IL-4R-ECD-FLAG (human) (UniProt P24394); assay: ELISA on coated IL-4R-ECD-FLAG (100 ng/ml), HRP goat anti-human secondary
IL-4R-ECD-FLAG (human) [2] = target: IL-4R-ECD-FLAG (human) (UniProt P24394); assay: SPR, Biacore T200; antibody captured on Protein A/G CM5 chip, IL-4R-ECD-FLAG injected
[3] = target: Biotinated IL-4R-ECD-hFc (human) (UniProt P24394); assay: blocking ELISA: coated IL-4-hFc (2000 ng/ml), biotinylated IL-4R-ECD-hFc (100 ng/ml) with antibody in dilution series, Streptavidin-HRP

B1: Dupilumab (antibody, INN chains, looked up, V domains shown)
VH: EVQLVESGGGLEQPGGSLRLSCAGSGFTFRDYAMTWVRQAPGKGLEWVSSISGSGGNTYYADSVKGRFTISRDNSKNTLYLQMNSLRAEDTAVYYCAKDRLSITIRPRYYGLDVWGQGTTVTVSS
VL: DIVMTQSPLSLPVTPGEPASISCRSSQSLLYSIGYNYLDWYLQKSGQSPQLLIYLGSNRASGVPDRFSGSGSGTDFTLKISRVEAEDVGFYYCMQALQTPYTFGQGTKLEIKR
Binder B1 has an EC50 (IL-4R-ECD-FLAG (human) [1]) of 0.0125 µg/mL, a Kd (IL-4R-ECD-FLAG (human) [2]) of 0.671 nM and a koff (IL-4R-ECD-FLAG (human) [2]) of 3.95e-05 s⁻¹. It also gave a kon (IL-4R-ECD-FLAG (human) [2]) of 58800 M⁻¹ s⁻¹ and an IC50 [3] of 0.138 µg/mL.

From US20210206861A1
